# Reference: US8697369B2, “Method for screening a test substance for activating a receptor associated with FGF 21 activity” (National Institute of Advanced Industrial Science and …, priority 2007, dated 2014)
# “Also recorded” adds a separate entry of the source.
# B1: humanized FGF21: FGF21 protein with human amino acid sequence, prepared in Escherichia coli from human cDNA (protein)
# chain: HPIPDSSPLLQFGGQVRQRYLYTDDAQQTEAHLEIREDGTVGGAADQSPESLLQLKALKPGVIQILGVKTSRFLCQRPDGALYGSLHFDPEACSFRELLLEDGYNVYQSEAHGLPLHLPGNKSPHRDPAPRGPARFLPLPGLPPALPEPPGILAPQPPDVGSSDPLSMVGPSQGRSPSYAS
# B2: FGF23: FGF having high structural similarity to FGF21; Klotho acts as its co-receptor (protein, UniProt Q9GZV9 25-251, looked up)
# Fibroblast growth factor 23: YPNASPLLGSSWGGLIHLYTATARNSYHLQIHKNGHVDGAPHQTIYSALMIRSEDAGFVVITGVMSRRYLCMDFRGNIFGSHYFDPENCRFQHQTLENGYDVYHSPQYHFLVSLGRAKRAFLPGMNPPPYSQFLSRRNEIPLIHFNTPIPRRHTRSAEDDSERDPLNVLKPRARMTPAPASCSQELPSAEDNSPMASDPLGVVRGGRVNTHAGGTGPEGCRPFAKFI
# How the values were obtained:
# Assay type in all cases: cell-based
# [1] = tested on: 3T3-L1 fibroblasts forced to express betaKlotho; assay: Phosphorylation of FRS2 and MAPK in undifferentiated 3T3-L1 cells forced to express betaKlotho; conditions: 10 μM; pre-treated for 3 hours, then stimulated with FGF21
# Method: A betaKlotho expression vector produced by the method described in Example 4 and an empty vector used as a control, into which betaKlotho cDNA had not been inserted, were introduced into 3T3-L1 fibroblasts cultured as described in Example 1 by a lipofection method, thereby obtaining Puromycin-resistant clones. These different types of cells were stimulated with FGF21, and 10 minutes after the stimulation, a cell lysate was prepared. The activation of FRS2 and MAPK that were signaling molecules located downstream of FGFR was examined by a Western blotting method.
# [2] = target: T1, humanized FGFR3c/humanized betaKlotho (hβKlotho)-expressing cells (Homo sapiens, UniProt P22607+Q86Z14, A441S/A461E/A470D/A499P/A500N/A559S/A717S/A734V/A765M/C582S/D512S/D516E/D576E/D580N/D722E/D758Q/D785E/DEL405-414/E426D/E447G/E729D/E768D/F566Y/F579Y/F591S/F767L/G446S/G448T/G548D/G773S/G774F/H721N/I440P/I494L/I698V/I726M/INS417HSQMAVHKLAKSI/INS423TV/INS780T/K420R/K464R/K501R/K583H/L398M/L425A/L457Y/L554I/L645I/L752V/M488L/N428S/N434G/N453G/N644H/P401G/P402T/P436L/P502V/P584N/P778R/Q611K/Q775P/R397K/R399K/R416D/R498K/R568Q/S432N/S468P/S578C/S781C/T435V/T450M/T473V/T504K/T581P/T590S/T753A/T757N/V503T/V523I/V642I/V670I/V751I/V754L); assay: DNA synthesis in humanized FGFR3c/humanized betaKlotho-expressing BaF3 cells; conditions: humanized FGFR3c and humanized betaKlotho; 10 μg/ml heparin
# T1 construct: expressed in transfected cells; host or cells: BaF3 (mouse pro-B) cells
# Method: (§1) The homology between human FGFR3 and mouse FGFR3 at the amino acid sequence level is 93%. […] The cDNA of humanized FGFR3c was prepared from a commercially available human RNA sample (Takara Bio Inc.) by PCR. The sequence of its intracellular portion was substituted with the sequence of humanized FGFR1, and it was then introduced into an expression vector having an SRalpha promoter (pSRalpha). The FGFR3c expression vector was introduced into BaF3 cells by an electroporation method, so as to obtain FGFR3c-expressing BaF3 cells as G418-resistant clones. In the case of FGFR3c/betaKlotho-co-expressing cells, a betaKlotho expression vector was introduced into the FGFR3c-expressing BaF3 cells, so as to obtain the aforementioned cells as Puromycin-resistant clones. In the presence of heparin, humanized FGF21 was added in various types of concentrations to FGFR3c-expressing cells or FGFR3c/betaKlotho-co-expressing cells, and the amount of DNA synthesized was then measured.
# [3] = target: T2, humanized FGFR1c (hR1c)-expressing BaF3 cells (Homo sapiens, UniProt P11362); assay: DNA synthesis in humanized FGFR1c-expressing BaF3 cells; conditions: humanized FGFR1c only; 10 μg/ml heparin
# T2 construct: expressed in transfected cells; host or cells: BaF3 (mouse pro-B) cells; pSRalpha vector
# Excerpt: (§2) In Examples 4, 5, 6, and 7, it was shown that FGF21 reacts with FGFR1c in the presence of betaKlotho. FGFR1c, betaKlotho, FGF21, and the like, which were used in an actual experimental system, were all derived from mice used as typical mammalian models. With regard to these molecules, the homology between a human and a mouse at the amino acid sequence level is extremely high (80% in FGF21, 78% in betaKlotho, and 98% in FGFR1). As a result, naturally, there are no problems regarding the compatibility of the human with the mouse, and thus it is clear that the same results as those from a murine molecule will be obtained even using a humanized molecule. In the present example, as a precautionary measure, an experimental system using a humanized molecule was constructed to confirm such respect, and an experiment was carried out. Specifically, the humanized cDNA of FGFR1c and that of betaKlotho were prepared from a commercially available human RNA sample (Takara Bio Inc.) by PCR. FGFR1c was introduced into an expression vector having an SRalpha promoter (pSRalpha), and betaKlotho was introduced into an expression vector having a CMV promoter (pcDNA3.1; Invitrogen). […] In the presence of heparin, humanized FGF21 was added in various types of concentrations to FGFR1c-expressing cells or FGFR1c/betaKlotho-co-expressing cells, and the amount of DNA synthesized was then measured.
# [4] = target: T3, humanized FGFR1c/humanized betaKlotho (hβKlotho)-expressing cells (Homo sapiens, UniProt P11362+Q86Z14); assay: DNA synthesis in humanized FGFR1c/humanized betaKlotho-expressing BaF3 cells; conditions: humanized FGFR1c and humanized betaKlotho; 10 μg/ml heparin
# T3 construct: expressed in transfected cells; host or cells: BaF3 (mouse pro-B) cells; pSRalpha (FGFR1c), pcDNA3.1 (betaKlotho)
# Excerpt: as §2
# [5] = target: T4, humanized FGFR3c (hR3c)-expressing BaF3 cells (Homo sapiens, UniProt P22607, A441S/A461E/A470D/A499P/A500N/A559S/A717S/A734V/A765M/C582S/D512S/D516E/D576E/D580N/D722E/D758Q/D785E/DEL405-414/E426D/E447G/E729D/E768D/F566Y/F579Y/F591S/F767L/G446S/G448T/G548D/G773S/G774F/H721N/I440P/I494L/I698V/I726M/INS417HSQMAVHKLAKSI/INS423TV/INS780T/K420R/K464R/K501R/K583H/L398M/L425A/L457Y/L554I/L645I/L752V/M488L/N428S/N434G/N453G/N644H/P401G/P402T/P436L/P502V/P584N/P778R/Q611K/Q775P/R397K/R399K/R416D/R498K/R568Q/S432N/S468P/S578C/S781C/T435V/T450M/T473V/T504K/T581P/T590S/T753A/T757N/V503T/V523I/V642I/V670I/V751I/V754L); assay: DNA synthesis in humanized FGFR3c-expressing BaF3 cells; conditions: humanized FGFR3c only; 10 μg/ml heparin
# T4 construct: expressed in transfected cells; host or cells: BaF3 (mouse pro-B) cells; pSRalpha vector
# Method: as §1
# [6] = target: T5, FGFR1c/betaKlotho-expressing BaF3 cells (Mus musculus, UniProt P16092+Q99N32); assay: DNA synthesis (thymidine incorporation) in FGFR1c/betaKlotho-expressing BaF3 cells; conditions: BaF3 cells expressing FGFR1c and betaKlotho; presence or absence of heparin
# T5 construct: the entire-length cDNA of mouse FGFR1c had been cloned; the entire-length cDNA of mouse betaKlotho was cloned into an animal cell expression vector; expressed in transfected cells; host or cells: BaF3 (mouse pro-B) cells
# Method: A commonly used measurement method is a cell growth stimulating activity measurement method described in Ornitz, D. M., Xu, J., Colvin, J. S., McEwen, D. G., MacArthur, C. A., Coulier, F., Gao, G. and Goldfarb, M. (1996) Receptor specificity of the fibroblast growth factor family. J Biol Chem, 271, 15292-15297. The summary thereof is as follows. FGF used as a measurement target is added to a culture solution containing a cultured cell having an FGF receptor on the surface thereof, and the obtained mixture is cultured for a certain period of time. Thereafter, a labeled thymidine is added to the culture solution, followed by further culture for a certain period of time. By measuring the amount of the labeled thymidine incorporated into polymeric DNA during the culture, the degree of FGF to activate DNA synthesis is evaluated. (In the present invention as well, this method was adopted when the activity of FGF21 was measured in Examples 4, 5, 6, 8, 9, and 10.)
# FGFR1c-expressing BaF3 cells and FGFR1c- and betaKlotho-expressing BaF3 cells were prepared as follows. In the case of FGFR1c-expressing BaF3 cells, an animal cell expression vector into which the entire-length cDNA of mouse FGFR1c had been cloned (described in Ornitz, D. M., Xu, J., Colvin, J. S., McEwen, D. G., MacArthur, C. A., Coulier, F., Gao, G. and Goldfarb, M. (1996) Receptor specificity of the fibroblast growth factor family. J Biol Chem, 271, 15292-15297.) was introduced into BaF3 cells by an electroporation method. The cells were then cultured in the presence of G418 for approximately 2 weeks, so as to obtain drug-resistant clones. Thereafter, such clones were obtained as those capable of growing as a result of FGF1 stimulation. In the case of both FGFR1c- and betaKlotho-expressing BaF3 cells, the entire-length cDNA of mouse betaKlotho was cloned into an animal cell expression vector, and it was then introduced into the FGFR1c-expressing BaF3 cells. The cells were then cultured in the presence of Puromycin and G418 for approximately 2 weeks, so as to obtain drug-resistant clones. In the case of only betaKlotho-expressing BaF3 cells, a betaKlotho-expressing vector was introduced into BaF3 cells, and Puromycin-resistant clones were then obtained. The BaF3 cells, into which the aforementioned genes had been each introduced, were maintained in an RPMI1640 medium containing 10% FBS and interleukin 3 (IL3, supplied by adding a 5% condition medium of WEHI-3 cells). For the growth stimulation experiment, the cells were washed with an RPMI1640 medium, and they were then suspended in an RPMI1640 medium containing 10% FBS, followed by inoculating the suspension on a culture plate. Thereafter, the resultant cells were used.
# Immediately after inoculation, BaF3 cells that had expressed each clone and only FGFR1c were stimulated by addition of FGF21 (open bar) or PBS (filled bar) used as a control in the presence of heparin, and they were then cultured for 42 hours. Thereafter, tritium-labeled thymidine was added to the culture solution, and the culture was further continued for 6 hours. Thereafter, the amount of thymidine incorporated into the cells was measured, so as to evaluate DNA synthesis. A DNA synthesis value obtained when the cells were not stimulated with FGF21 was defined as 1, and the ratio of a DNA synthesis value obtained by stimulating with FGF21 to the aforementioned DNA synthesis value was expressed using magnification. […]
# [7] = target: T6, BaF3 cells that had co-expressed FGFR1c and Klotho (Mus musculus, UniProt O35082+P16092); assay: DNA synthesis in BaF3 cells co-expressing FGFR1c and Klotho; conditions: presence or absence of heparin
# T6 construct: the entire-length cDNA of mouse FGFR1c had been cloned; expressed in transfected cells; host or cells: BaF3 (mouse pro-B) cells
# Method: Specifically, BaF3 cell that had co-expressed FGFR1c and betaKlotho and BaF3 cells that had co-expressed FGFR1c and Klotho were prepared by the same transformation method and under the same culture conditions as those applied in Example 4. Thereafter, FGF21 and FGF23 were added to both types of transformed cells in the presence or absence of heparin, and the amount of DNA synthesized was then measured.
# T1 sequence (P22607 other isoform, or with tags, fused parts or gaps with the stated changes): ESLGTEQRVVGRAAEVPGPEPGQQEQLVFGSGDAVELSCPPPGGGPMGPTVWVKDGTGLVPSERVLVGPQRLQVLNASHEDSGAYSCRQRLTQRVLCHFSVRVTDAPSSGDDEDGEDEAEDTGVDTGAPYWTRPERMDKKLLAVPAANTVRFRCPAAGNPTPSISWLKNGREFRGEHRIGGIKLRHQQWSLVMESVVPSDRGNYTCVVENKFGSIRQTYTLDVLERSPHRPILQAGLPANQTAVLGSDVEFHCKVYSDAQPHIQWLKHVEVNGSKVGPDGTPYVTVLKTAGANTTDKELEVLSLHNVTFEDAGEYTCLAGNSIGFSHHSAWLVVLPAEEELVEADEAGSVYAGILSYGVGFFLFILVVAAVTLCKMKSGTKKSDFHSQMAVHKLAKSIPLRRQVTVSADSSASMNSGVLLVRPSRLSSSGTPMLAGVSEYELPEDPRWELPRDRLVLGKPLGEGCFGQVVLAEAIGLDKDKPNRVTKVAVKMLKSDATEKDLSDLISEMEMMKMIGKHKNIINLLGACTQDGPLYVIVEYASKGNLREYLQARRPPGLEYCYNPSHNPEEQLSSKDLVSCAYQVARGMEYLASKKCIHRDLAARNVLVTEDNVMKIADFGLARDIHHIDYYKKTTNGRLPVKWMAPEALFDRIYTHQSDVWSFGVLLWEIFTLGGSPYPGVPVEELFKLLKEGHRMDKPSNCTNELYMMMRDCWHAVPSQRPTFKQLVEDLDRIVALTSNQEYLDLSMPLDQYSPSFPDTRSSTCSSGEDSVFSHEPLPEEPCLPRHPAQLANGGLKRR
# T1 sequence (Q86Z14 whole entry, stated change not applied): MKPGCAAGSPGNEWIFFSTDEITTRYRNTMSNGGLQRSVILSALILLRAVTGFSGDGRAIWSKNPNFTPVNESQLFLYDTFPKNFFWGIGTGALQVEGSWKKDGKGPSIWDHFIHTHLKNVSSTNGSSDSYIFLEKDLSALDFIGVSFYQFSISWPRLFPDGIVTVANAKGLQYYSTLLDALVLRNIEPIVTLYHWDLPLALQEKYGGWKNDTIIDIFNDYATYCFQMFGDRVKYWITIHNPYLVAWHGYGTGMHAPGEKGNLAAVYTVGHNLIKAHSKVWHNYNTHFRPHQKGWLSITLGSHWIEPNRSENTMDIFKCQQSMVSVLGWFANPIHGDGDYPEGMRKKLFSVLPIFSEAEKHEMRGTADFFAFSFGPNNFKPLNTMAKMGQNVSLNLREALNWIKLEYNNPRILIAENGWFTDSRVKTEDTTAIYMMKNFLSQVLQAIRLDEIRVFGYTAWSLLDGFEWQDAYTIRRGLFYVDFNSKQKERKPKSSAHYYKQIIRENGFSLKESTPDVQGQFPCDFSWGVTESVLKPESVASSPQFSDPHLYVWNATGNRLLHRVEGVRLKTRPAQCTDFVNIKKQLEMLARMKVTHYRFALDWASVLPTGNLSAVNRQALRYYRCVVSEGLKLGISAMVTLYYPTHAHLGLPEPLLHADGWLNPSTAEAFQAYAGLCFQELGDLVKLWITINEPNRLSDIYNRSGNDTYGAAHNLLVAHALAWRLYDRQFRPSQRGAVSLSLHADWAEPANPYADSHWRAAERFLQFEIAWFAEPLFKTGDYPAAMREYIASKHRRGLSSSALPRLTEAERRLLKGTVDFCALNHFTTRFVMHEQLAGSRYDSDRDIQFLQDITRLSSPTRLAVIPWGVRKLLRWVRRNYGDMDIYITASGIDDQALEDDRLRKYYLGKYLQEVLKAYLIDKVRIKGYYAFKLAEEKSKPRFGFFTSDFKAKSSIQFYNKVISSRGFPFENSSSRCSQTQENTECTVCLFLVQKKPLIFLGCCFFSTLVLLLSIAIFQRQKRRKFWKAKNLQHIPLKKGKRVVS
# T3 sequence (P11362 22-822): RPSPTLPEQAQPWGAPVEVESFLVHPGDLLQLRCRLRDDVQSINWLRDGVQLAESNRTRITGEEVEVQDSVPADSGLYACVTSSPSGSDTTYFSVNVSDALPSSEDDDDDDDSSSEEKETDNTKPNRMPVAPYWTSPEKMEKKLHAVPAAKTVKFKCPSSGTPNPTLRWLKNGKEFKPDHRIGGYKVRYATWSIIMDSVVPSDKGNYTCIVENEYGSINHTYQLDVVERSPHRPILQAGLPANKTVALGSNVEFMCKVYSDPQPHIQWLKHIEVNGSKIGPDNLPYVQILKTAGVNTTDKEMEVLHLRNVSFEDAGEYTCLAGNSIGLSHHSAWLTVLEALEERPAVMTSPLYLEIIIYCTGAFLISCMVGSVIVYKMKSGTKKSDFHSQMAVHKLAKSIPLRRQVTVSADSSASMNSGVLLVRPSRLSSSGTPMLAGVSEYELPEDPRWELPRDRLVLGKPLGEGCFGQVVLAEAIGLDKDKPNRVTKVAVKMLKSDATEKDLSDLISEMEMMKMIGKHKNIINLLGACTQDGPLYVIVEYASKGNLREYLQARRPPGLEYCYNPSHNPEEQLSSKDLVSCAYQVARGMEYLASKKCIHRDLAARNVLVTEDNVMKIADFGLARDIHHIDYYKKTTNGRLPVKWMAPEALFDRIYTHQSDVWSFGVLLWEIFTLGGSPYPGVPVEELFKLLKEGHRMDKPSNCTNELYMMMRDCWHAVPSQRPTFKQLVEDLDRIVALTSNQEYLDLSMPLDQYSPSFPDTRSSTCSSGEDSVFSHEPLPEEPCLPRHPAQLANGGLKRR
# T3 sequence (Q86Z14 whole entry): as the sequence (Q86Z14 whole entry, stated change not applied) above
# T4 sequence (P22607 other isoform, or with tags, fused parts or gaps with the stated changes): as the sequence (P22607 other isoform, or with tags, fused parts or gaps with the stated changes) above
# T6 sequence (P16092 22-822): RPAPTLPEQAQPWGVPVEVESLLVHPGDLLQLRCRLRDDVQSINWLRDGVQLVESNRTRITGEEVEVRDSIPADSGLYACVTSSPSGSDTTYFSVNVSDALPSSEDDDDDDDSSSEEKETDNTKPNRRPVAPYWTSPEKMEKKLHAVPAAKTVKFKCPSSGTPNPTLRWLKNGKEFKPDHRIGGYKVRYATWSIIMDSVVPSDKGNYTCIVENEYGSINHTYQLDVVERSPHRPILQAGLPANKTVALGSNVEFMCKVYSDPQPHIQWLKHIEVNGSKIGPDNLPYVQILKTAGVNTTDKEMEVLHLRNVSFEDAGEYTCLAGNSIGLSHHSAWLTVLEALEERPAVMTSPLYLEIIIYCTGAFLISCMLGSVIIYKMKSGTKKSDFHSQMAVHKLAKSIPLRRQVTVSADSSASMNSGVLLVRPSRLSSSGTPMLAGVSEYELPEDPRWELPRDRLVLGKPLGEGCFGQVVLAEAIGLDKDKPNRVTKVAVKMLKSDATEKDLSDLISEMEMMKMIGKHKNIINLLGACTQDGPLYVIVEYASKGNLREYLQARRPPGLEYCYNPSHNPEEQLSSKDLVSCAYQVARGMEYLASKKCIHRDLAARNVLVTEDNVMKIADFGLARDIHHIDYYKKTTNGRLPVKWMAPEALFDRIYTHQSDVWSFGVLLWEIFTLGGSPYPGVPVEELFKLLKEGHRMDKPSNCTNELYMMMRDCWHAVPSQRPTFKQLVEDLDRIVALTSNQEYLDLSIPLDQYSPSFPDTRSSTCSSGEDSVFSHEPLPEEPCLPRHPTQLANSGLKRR
# T6 sequence (O35082 35-1014): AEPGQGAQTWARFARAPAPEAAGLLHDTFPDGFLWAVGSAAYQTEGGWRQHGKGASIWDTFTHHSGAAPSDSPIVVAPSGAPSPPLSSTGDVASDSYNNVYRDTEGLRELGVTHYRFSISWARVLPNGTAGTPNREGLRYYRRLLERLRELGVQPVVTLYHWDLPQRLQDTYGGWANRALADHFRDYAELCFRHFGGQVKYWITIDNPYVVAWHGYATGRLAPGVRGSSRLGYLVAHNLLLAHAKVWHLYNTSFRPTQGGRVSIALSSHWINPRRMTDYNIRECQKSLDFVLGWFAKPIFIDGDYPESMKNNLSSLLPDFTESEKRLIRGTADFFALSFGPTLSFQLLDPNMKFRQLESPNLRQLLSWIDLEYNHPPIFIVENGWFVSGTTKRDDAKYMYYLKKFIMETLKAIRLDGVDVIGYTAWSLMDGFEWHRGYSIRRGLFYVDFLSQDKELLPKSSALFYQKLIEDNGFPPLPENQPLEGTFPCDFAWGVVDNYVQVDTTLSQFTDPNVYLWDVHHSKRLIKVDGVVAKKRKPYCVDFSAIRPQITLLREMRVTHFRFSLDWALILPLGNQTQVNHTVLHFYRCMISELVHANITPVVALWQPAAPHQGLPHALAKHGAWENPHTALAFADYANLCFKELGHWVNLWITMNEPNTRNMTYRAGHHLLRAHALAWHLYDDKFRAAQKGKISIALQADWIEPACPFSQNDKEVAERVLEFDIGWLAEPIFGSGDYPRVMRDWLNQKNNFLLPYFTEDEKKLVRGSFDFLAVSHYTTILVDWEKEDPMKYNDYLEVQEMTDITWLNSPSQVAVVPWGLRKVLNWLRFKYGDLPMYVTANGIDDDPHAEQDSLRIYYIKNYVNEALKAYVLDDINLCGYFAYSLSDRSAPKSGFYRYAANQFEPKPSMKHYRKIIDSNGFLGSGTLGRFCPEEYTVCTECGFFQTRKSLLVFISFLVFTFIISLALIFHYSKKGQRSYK
# T2 sequence (P11362 22-822): as the sequence (P11362 22-822) above
molecule,measurement,setting,value
"Cc1c[nH]c(/C=C2\C(=O)Nc3ccccc32)c1CCC(=O)O [SU5402, reference compound]",degree of phosphorylation of FRS2 and MAPK on FGF21 stimulation after inhibitor pre-treatment,[1],decreased
B1,amount of DNA synthesized (thymidine incorporation),[2],activated; also recorded: increased the amount of thymidine incorporated into the cells in a dose-dependent manner
same,amount of DNA synthesized (thymidine incorporation),[3],activated only the FGFR1c/betaKlotho-co-expressing cells
same,amount of DNA synthesized (thymidine incorporation),[4],activated; also recorded: increased the amount of thymidine incorporated into the cells in a dose-dependent manner
same,amount of DNA synthesized (thymidine incorporation),[5],activated only the FGFR3c/betaKlotho-co-expressing cells
B2,DNA synthesis (thymidine incorporated into the cells),[6],did not react with FGFR1c
same,amount of DNA synthesized,[7],able to act on FGFR1c-expressing cells
